# Test results as given in the supplement of paper PMC10567573.
# B1: GAGE1 (parent)
# chain: RPRRYVQPPEMIGPMRPEQFSDEV
# Variants of: B1
# Experiment: protein stability index of a GFP-peptide fusion (GPS, HEK-293T) (PSI 1-6); higher = more stable
# Conditions: c terminus: a fixed tail appended
# 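Note: lentivirally expressed fusions sorted by FACS into six bins by GFP to DsRed ratio, PSI derived from sequencing read proportions per bin multiplied by bin number.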
row,Variant,protein stability index
1,RPRRYVQPPEMIGPMRWEQFSDEV [P17W],3.66
2,RPRRYVQPPEMIGPMRNEQFSDEV [P17N],4.09
3,RPRRYVQPPEMIGPMRQEQFSDEV [P17Q],4.15
4,RPRRYVQPPEMIGPMRREQFSDEV [P17R],3.96
5,RPRRYVQPPEMIGPMREEQFSDEV [P17E],4.33
6,RPRRYVQPPEMIGPMRLEQFSDEV [P17L],3.97
7,RPRRYVQPPEMIGPMRHEQFSDEV [P17H],3.92
8,RPRRYVQPPEMIGPMRIEQFSDEV [P17I],3.72
9,RPRRYVQPPEMIGPMRAEQFSDEV [P17A],3.8
10,RPRRYVQPPEMIGPMRCEQFSDEV [P17C],3.79
11,RPRRYVQPPEMIGPMRYEQFSDEV [P17Y],3.36
12,RPRRYVQPPEMIGPMRDEQFSDEV [P17D],4.43
13,RPRRYVQPPEMIGPMRTEQFSDEV [P17T],3.85
14,RPRRYVQPPEMIGPMRKEQFSDEV [P17K],4.14
15,RPRRYVQPPEMIGPMRSEQFSDEV [P17S],4.39
16,RPRRYVQPPEMIGPMRMEQFSDEV [P17M],3.88
17,RPRRYVQPPEMIGPMRVEQFSDEV [P17V],4.43
18,RPRRYVQPPEMIGPMRFEQFSDEV [P17F],3.58
19,RPRRYVQPPEMIGPMRGEQFSDEV [P17G],4.55
20,RPRRYVQPPEMIGPMPPEQFSDEV [R16P],4.35
21,RPRRYVQPPEMIGPMLPEQFSDEV [R16L],3.5
22,RPRRYVQPPEMIGPMSPEQFSDEV [R16S],3.87
23,RPRRYVQPPEMIGPMEPEQFSDEV [R16E],4.3
24,RPRRYVQPPEMIGPMFPEQFSDEV [R16F],3.8

row,Variant,protein stability index
1,RPRRYVQPPEMIGPMNPEQFSDEV [R16N],4.31
2,RPRRYVQPPEMIGPMYPEQFSDEV [R16Y],4.02
3,RPRRYVQPPEMIGPMWPEQFSDEV [R16W],3.28
4,RPRRYVQPPEMIGPMVPEQFSDEV [R16V],4.16
5,RPRRYVQPPEMIGPMIPEQFSDEV [R16I],4.44
6,RPRRYVQPPEMIGPMAPEQFSDEV [R16A],4.31
7,RPRRYVQPPEMIGPMGPEQFSDEV [R16G],4.17
8,RPRRYVQPPEMIGPMDPEQFSDEV [R16D],3.84
9,RPRRYVQPPEMIGPMHPEQFSDEV [R16H],4.29
10,RPRRYVQPPEMIGPMKPEQFSDEV [R16K],3.94
11,RPRRYVQPPEMIGPMCPEQFSDEV [R16C],3.84
12,RPRRYVQPPEMIGPMQPEQFSDEV [R16Q],4.26
13,RPRRYVQPPEMIGPMTPEQFSDEV [R16T],3.8
14,RPRRYVQPPEMIGPMMPEQFSDEV [R16M],3.88
15,RPRRYVQPPEMIGPMRPVQFSDEV [E18V],3.32
16,RPRRYVQPPEMIGPMRPWQFSDEV [E18W],3.16
17,RPRRYVQPPEMIGPMRPSQFSDEV [E18S],3.33
18,RPRRYVQPPEMIGPMRPNQFSDEV [E18N],3.66
19,RPRRYVQPPEMIGPMRPCQFSDEV [E18C],3.21
20,RPRRYVQPPEMIGPMRPMQFSDEV [E18M],3.45
21,RPRRYVQPPEMIGPMRPIQFSDEV [E18I],3.13
22,RPRRYVQPPEMIGPMRPTQFSDEV [E18T],3.84
23,RPRRYVQPPEMIGPMRPQQFSDEV [E18Q],3.56
24,RPRRYVQPPEMIGPMRPDQFSDEV [E18D],3.48

row,Variant,protein stability index
1,RPRRYVQPPEMIGPMRPRQFSDEV [E18R],3.57
2,RPRRYVQPPEMIGPMRPAQFSDEV [E18A],3.81
3,RPRRYVQPPEMIGPMRPYQFSDEV [E18Y],3.51
4,RPRRYVQPPEMIGPMRPHQFSDEV [E18H],3.46
5,RPRRYVQPPEMIGPMRPKQFSDEV [E18K],3.43
6,RPRRYVQPPEMIGPMRPGQFSDEV [E18G],3.86
7,RPRRYVQPPEMIGPMRPPQFSDEV [E18P],3.6
8,RPRRYVQPPEMIGPMRPLQFSDEV [E18L],3.52
9,RPRRYVQPPEMIGPMRPFQFSDEV [E18F],3.34
10,RPRRYVQPPEMIGPMRPEQFSDAV [E23A],3.59
11,RPRRYVQPPEMIGPMRPEQFSDGV [E23G],3.46
12,RPRRYVQPPEMIGPMRPEQFSDDV [E23D],3.77
13,RPRRYVQPPEMIGPMRPEQFSDFV [E23F],2.98
14,RPRRYVQPPEMIGPMRPEQFSDCV [E23C],3.58
15,RPRRYVQPPEMIGPMRPEQFWDEV [S21W],3.01
16,RPRRYVQPPEMIGPMRPEQFRDEV [S21R],4.11
17,RPRRYVQPPEMIGPMRPEQFIDEV [S21I],2.9
18,RPRRYVQPPEMIGPMRPEQFADEV [S21A],3.69
19,RPRRYVQPPEMIGPMRPEQFEDEV [S21E],3.73
20,RPRRYVQPPEMIGPMRPEQFKDEV [S21K],4
21,RPRRYVQPPEMIGPMRPEQFNDEV [S21N],3.87
22,RPRRYVQPPEMIGPMRPEQFYDEV [S21Y],3.63
23,RPRRYVQPPEMIGPMRPEQFPDEV [S21P],3.99
24,RPRRYVQPPEMIGPMRPEQFMDEV [S21M],3.44

row,Variant,protein stability index
1,RPRRYVQPPEMIGPMRPEQFLDEV [S21L],3.48
2,RPRRYVQPPEMIGPMRPEQFTDEV [S21T],3.71
3,RPRRYVQPPEMIGPMRPEQFVDEV [S21V],3.64
4,RPRRYVQPPEMIGPMRPEQFGDEV [S21G],4.17
5,RPRRYVQPPEMIGPMRPEQFHDEV [S21H],3.55
6,RPRRYVQPPEMIGPMRPEQFQDEV [S21Q],3.79
7,RPRRYVQPPEMIGPMRPEQFDDEV [S21D],3.98
8,RPRRYVQPPEMIGPMRPEQFCDEV [S21C],4.15
9,RPRRYVQPPEMIGPMRPEQFFDEV [S21F],2.97
10,RPRRYVQPPEMITPMRPEQFSDEV [G13T],4.33
11,RPRRYVQPPEMIKPMRPEQFSDEV [G13K],3.72
12,RPRRYVQPPEMINPMRPEQFSDEV [G13N],4.33
13,RPRRYVQPPEMIMPMRPEQFSDEV [G13M],4.14
14,RPRRYVQPPEMIYPMRPEQFSDEV [G13Y],3.85
15,RPRRYVQPPEMIWPMRPEQFSDEV [G13W],3.56
16,RPRRYVQPPEMIRPMRPEQFSDEV [G13R],4.19
17,RPRRYVQPPEMIVPMRPEQFSDEV [G13V],4.05
18,RPRRYVQPPEMISPMRPEQFSDEV [G13S],4.09
19,RPRRYVQPPEMIQPMRPEQFSDEV [G13Q],4.54
20,RPRRYVQPPEMIPPMRPEQFSDEV [G13P],4.68
21,RPRRYVQPPEMILPMRPEQFSDEV [G13L],3.71
22,RPRRYVQPPEMIGPMRPEQFSSEV [D22S],3.95
